T1: human Siglec-5 (human, UniProt O15389 17-551)
T1 construct: also called CHO-S5; CHO-S hSiglec-5
T1 sequence: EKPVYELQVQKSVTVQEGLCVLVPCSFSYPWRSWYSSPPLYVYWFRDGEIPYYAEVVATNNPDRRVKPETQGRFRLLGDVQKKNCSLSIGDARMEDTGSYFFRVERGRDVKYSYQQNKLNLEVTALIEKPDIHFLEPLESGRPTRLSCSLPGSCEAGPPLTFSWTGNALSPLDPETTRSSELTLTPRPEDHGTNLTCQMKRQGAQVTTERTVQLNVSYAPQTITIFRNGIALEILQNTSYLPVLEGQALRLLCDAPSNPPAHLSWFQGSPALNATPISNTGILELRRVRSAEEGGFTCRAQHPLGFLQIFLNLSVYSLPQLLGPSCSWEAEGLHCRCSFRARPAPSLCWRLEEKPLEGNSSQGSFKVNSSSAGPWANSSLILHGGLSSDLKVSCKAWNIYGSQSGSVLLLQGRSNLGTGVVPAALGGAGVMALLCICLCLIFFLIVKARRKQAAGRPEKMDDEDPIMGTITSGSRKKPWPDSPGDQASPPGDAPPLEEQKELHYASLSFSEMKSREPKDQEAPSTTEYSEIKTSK

T2: human Siglec-14 (human, UniProt Q08ET2 17-396)
T2 construct: also called CHO-S14; CHO-S hSiglec-14
T2 sequence: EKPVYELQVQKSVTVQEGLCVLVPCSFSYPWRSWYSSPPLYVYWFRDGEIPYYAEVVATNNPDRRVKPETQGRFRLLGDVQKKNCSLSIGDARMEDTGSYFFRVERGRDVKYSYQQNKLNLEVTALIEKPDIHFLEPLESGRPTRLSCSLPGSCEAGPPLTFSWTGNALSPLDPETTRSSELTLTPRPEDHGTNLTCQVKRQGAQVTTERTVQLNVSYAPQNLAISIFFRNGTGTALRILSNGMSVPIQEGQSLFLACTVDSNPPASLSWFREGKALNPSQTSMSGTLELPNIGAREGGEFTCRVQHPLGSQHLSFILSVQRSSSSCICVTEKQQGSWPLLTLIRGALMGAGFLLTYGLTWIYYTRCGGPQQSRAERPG

T3: Histidine-tagged human Siglec-5 (NovoProtein) (human, UniProt O15389 17-434, limits assumed)
T3 construct: Bought soluble protein; also called His-tagged human Siglec-5; not shown: histidine tag
T3 sequence: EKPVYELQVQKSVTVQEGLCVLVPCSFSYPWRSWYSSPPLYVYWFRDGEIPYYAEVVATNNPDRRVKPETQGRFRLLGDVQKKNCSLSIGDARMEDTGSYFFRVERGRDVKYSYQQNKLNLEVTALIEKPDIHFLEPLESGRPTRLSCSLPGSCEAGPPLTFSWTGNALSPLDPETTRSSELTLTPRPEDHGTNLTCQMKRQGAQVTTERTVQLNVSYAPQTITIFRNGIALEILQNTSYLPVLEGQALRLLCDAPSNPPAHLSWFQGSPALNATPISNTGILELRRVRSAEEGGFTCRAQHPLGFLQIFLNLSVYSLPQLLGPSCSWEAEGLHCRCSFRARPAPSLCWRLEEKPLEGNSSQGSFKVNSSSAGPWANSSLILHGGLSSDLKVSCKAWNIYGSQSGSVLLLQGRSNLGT


Legend:
human Siglec-5 = biological target: T1, human Siglec-5; assay: FACS titration, CHO-S hSiglec-5 cells, anti-human IgG secondary; y-axis Fold over isotype, x-axis Antibody (nM), log scale
Procedure: (§1) CHO cells were incubated with increasing concentrations of anti-Siglec-5 antibody, as indicated on the x-axis of each plot. The binding of anti-Siglec-5 antibodies to the surface of CHO cells was then measured by FACS. The y-axis provides the binding of each indicated anti-Siglec-5 antibody to the surface of CHO cells relative to hIgG1 isotype control antibodies. S5-174-H2L1 refers to antibody S5-174-H3; S5-174-H3L1 refers to antibody S5-174-H5; S5-174-H3L2 refers to antibody S5-174-H6; S5-174-H4L1 refers to antibody S5-174-H7; S5-174-H4L2 refers to antibody S5-174-H8; S5-G03-H2L1 refers to antibody S5-G-03-H4; S5-G03-H2L2 refers to antibody S5-G-03-H5; S5-G03-H3L1 refers to antibody S5-G-03-H7; S5-G03-H3L2 refers to antibody S5-G-03-H8; and S5-G03-H3L3 refers to antibody S5-G-03-H9.
(§2) Various anti-Siglec-5 antibodies of the present disclosure were evaluated for their ability to bind to CHO cells which were stably transfected with human Siglec-5 (CHO-S5) or human Siglec-14 (CHO-S14). Cells were incubated with various dilutions of anti-Siglec-5 antibodies for 30 minutes on ice in the dark, followed by a 30-minute incubation with a fluorescently conjugated anti-human IgG secondary antibody. Cells were then washed twice in FACS buffer (PBS+2% FBS, 2 mM EDTA), and flow cytometry was performed on a BD FACS Canto. Data were analyzed using FlowJo software (Ashland, Oreg.). In FIG. 9, hIgG1 refers to isotype control antibodies; S5-174-H2L1 refers to antibody S5-174-H3; S5-174-H3L1 refers to antibody S5-174-H5; S5-174-H3L2 refers to antibody S5-174-H6; S5-174-H4L1 refers to antibody S5-174-H7; S5-174-H4L2 refers to antibody S5-174-H8; S5-G03-H2L1 refers to antibody S5-G-03-H4; S5-G03-H2L2 refers to antibody S5-G-03-H5; S5-G03-H3L1 refers to antibody S5-G-03-H7; S5-G03-H3L2 refers to antibody S5-G-03-H8; and S5-G03-H3L3 refers to antibody S5-G-03-H9.

human Siglec-14 = biological target: T2, human Siglec-14; assay: FACS titration, CHO-S hSiglec-14 cells, anti-human IgG secondary; y-axis Fold over isotype, x-axis Antibody (nM), log scale; the same flat line on CHO-S Parental cells
Procedure: as §1, §2

[1] = biological target: T3, Histidine-tagged human Siglec-5 …; assay: array SPR, antibody immobilized, His-tagged human Siglec-5 (0-500 nM) in solution; apparent affinity
Procedure: The apparent binding affinities of the anti-Siglec-5 antibodies were measured by array surface plasmon resonance (SPR), according to standard techniques (Abdiche, et al. (2016) MAbs 8:264-277). Briefly, anti-Siglec-5 antibodies were immobilized on a HC 30M chip at four different densities, at antibody concentration of 10 μg/mL, 2.5 μg/mL, 0.63 μg/mL, and 0.16 μg/mL. Varying concentrations (0-500 nM) of Histidine-tagged human Siglec-5 or cynomolgus Siglec-5 (NovoProtein) were then bound to the captured anti-Siglec-5 surface (5 min injection time, 15 min dissociation time) in HBS-EP⁺/1 mg/mL BSA running buffer. Kinetic analysis was performed using Carterra software to extract association and dissociation rate constants (kₐ and kd, respectively) for each antibody. Apparent affinity constants (KD) were calculated from the ratio kd/kₐ. None of the anti-Siglec-5 antibodies bound to cynomolgus Siglec-5 protein.

Binder	binding result (human Siglec-5)	Kd [1]	koff [1]	kon [1]	binding result (human Siglec-14)
S5-G-03-H8 (antibody, V domains shown, Humanized variant of S5-G-03; also called S5-G03-H3L2; SG-5-03-H8) VH: EVQLLQSGGGLVQPGGSLRLSCAASGFTFSTYGMSWVRQAPGKGLELVATINSNGDNTYYADSVKGRFTISRDNSKNTLYLQMNSLRAEDTAVYYCARAWPSITTVFAPYTLDYWGQGTLVTVSS VL: DIQMTQSPSSLSASVGDRVTITCRASSSVSSSFLHWYQQKPGKAPKLWIYSTSNLASGVPSRFSGSGSGTDYTLTISSLQPEDFATYYCQQYSGYPLTFGQGTKLEIK	binds	–	–	–	no binding (tested: last point between 1 and 10 nM)
S5-G-03-H4 (antibody, V domains shown, Humanized variant of S5-G-03; also called S5-G03-H2L1) VH: EVQLLESGGGLVQPGGSLRLSCAASGFTFSTYGMSWVRQAPGKGLELVATINSNGDNTYYADSVKGRFTISRDNSKNTLYLQMNSLRAEDTAVYYCARAWPSITTVFAPYTLDYWGQGTLVTVSS VL: DIQMTQSPSSLSASVGDRVTITCRASSSVSSSFLHWYQQKPGKAPKLLIYSTSNLASGVPSRFSGSGSGTDFTLTISSLQPEDFATYYCQQYSGYPLTFGQGTKLEIK	binds	–	–	–	no binding (tested: last point between 1 and 10 nM)
S5-G-03-H7 (antibody, V domains shown, Humanized variant of S5-G-03; also called S5-G03-H3L1) VH: EVQLLQSGGGLVQPGGSLRLSCAASGFTFSTYGMSWVRQAPGKGLELVATINSNGDNTYYADSVKGRFTISRDNSKNTLYLQMNSLRAEDTAVYYCARAWPSITTVFAPYTLDYWGQGTLVTVSS VL: DIQMTQSPSSLSASVGDRVTITCRASSSVSSSFLHWYQQKPGKAPKLLIYSTSNLASGVPSRFSGSGSGTDFTLTISSLQPEDFATYYCQQYSGYPLTFGQGTKLEIK	binds	–	–	–	no binding (tested: last point between 1 and 10 nM)
S5-174-H5 (antibody, V domains shown, Humanized variant of S5-174; also called S5-174-H3L1) VH: QVQLVQSGAEVKKPGSSVKLSCKASGYTFTNYWMHWVRQAPGQGLEWVGEIDPSDGYVTYAQKFQGRATLTVDKSTSTAYMELSSLRSEDTAVYYCAGVYYGNSIYYAMDYWGQGTLVTVSS VL: DIQMTQSPSSLSASVGDRVTITCRASQDVGTAVAWYQQKPGKAPKLLIYWTSTRHTGVPSRFSGSGSGTDFTLTISSLQPEDFATYYCQQYRSYPFTFGQGTKLEIK	binds	–	–	–	no binding (tested: last point between 1 and 10 nM)
S5-G-03 (antibody, V domains shown, Mouse-derived variable domains; expressed in mammalian cells as full antibody; hIgG1 isotype control; also called SG-5-03) VH: QAYLQQSGGGLVQPGQSLKLSCAASGFTFSTYGMSWVRQTPDKRLELVATINSNGDNTYYPDSVKGRFTISRDNANNTLYLQMSSLKSEDTAMYFCARAWPSITTVFAPYTLDYWGQGTSVTVSS VL: DIVLTQSPAIMSASPGEKVTMTCRASSSVSSSFLHWYQQKSGASPKLWIYSTSNLASGVPTRFSGSGSGTSYSLSISSVEAEDTATYFCQQYSGYPLTFGGGTKLEIK	–	7.1 nM	0.0001 s⁻¹	14000 M⁻¹ s⁻¹	no binding (tested: last point between 1 and 10 nM)

Further lines, with some results ahead:

binding result (human Siglec-5)	Kd [1]	koff [1]	kon [1]	Binder	binding result (human Siglec-14)
binds	–	–	–	S5-G-03-H5 (antibody, V domains shown, Humanized variant of S5-G-03; also called S5-G03-H2L2; SG-5-03-H5) VH: EVQLLESGGGLVQPGGSLRLSCAASGFTFSTYGMSWVRQAPGKGLELVATINSNGDNTYYADSVKGRFTISRDNSKNTLYLQMNSLRAEDTAVYYCARAWPSITTVFAPYTLDYWGQGTLVTVSS VL: DIQMTQSPSSLSASVGDRVTITCRASSSVSSSFLHWYQQKPGKAPKLWIYSTSNLASGVPSRFSGSGSGTDYTLTISSLQPEDFATYYCQQYSGYPLTFGQGTKLEIK	no binding (tested: last point between 1 and 10 nM)
binds	–	–	–	S5-174-H7 (antibody, V domains shown, Humanized variant of S5-174; also called S5-174-H4L1) VH: QVQLVQSGAEVKKPGSSVKLSCKASGYTFTNYWMHWVRQAPGQGLEWVGEIDPSDGYVTYAQKFQGRATLTVDRSTSTAYMELSSLRSEDTAVYYCAGVYYGNSIYYAMDYWGQGTLVTVSS VL: DIQMTQSPSSLSASVGDRVTITCRASQDVGTAVAWYQQKPGKAPKLLIYWTSTRHTGVPSRFSGSGSGTDFTLTISSLQPEDFATYYCQQYRSYPFTFGQGTKLEIK	no binding (tested: last point between 1 and 10 nM)
binds	–	–	–	S5-174-H3 (antibody, V domains shown, Humanized variant of S5-174; also called S5-174-H2L1) VH: QVQLVQSGAEVKKPGSSVKVSCKASGYTFTNYWMHWVRQAPGQGLEWMGEIDPSDGYVTYAQKFQGRVTITVDKSTSTAYMELSSLRSEDTAVYYCAGVYYGNSIYYAMDYWGQGTLVTVSS VL: DIQMTQSPSSLSASVGDRVTITCRASQDVGTAVAWYQQKPGKAPKLLIYWTSTRHTGVPSRFSGSGSGTDFTLTISSLQPEDFATYYCQQYRSYPFTFGQGTKLEIK	no binding (tested: last point between 1 and 10 nM)
binds	–	–	–	S5-174-H6 (antibody, V domains shown, Humanized variant of S5-174; also called S5-174-H3L2) VH: QVQLVQSGAEVKKPGSSVKLSCKASGYTFTNYWMHWVRQAPGQGLEWVGEIDPSDGYVTYAQKFQGRATLTVDKSTSTAYMELSSLRSEDTAVYYCAGVYYGNSIYYAMDYWGQGTLVTVSS VL: DIQMTQSPSSLSTSVGDRVTITCRASQDVGTAVAWYQQKPGKAPKLLIYWTSTRHTGVPSRFSGSGSGTDFTLTISSVQPEDLATYYCQQYRSYPFTFGQGTKLEIK	no binding (tested: last point between 1 and 10 nM)
binds	–	–	–	S5-174-H8 (antibody, V domains shown, Humanized variant of S5-174; also called S5-174-H4L2) VH: QVQLVQSGAEVKKPGSSVKLSCKASGYTFTNYWMHWVRQAPGQGLEWVGEIDPSDGYVTYAQKFQGRATLTVDRSTSTAYMELSSLRSEDTAVYYCAGVYYGNSIYYAMDYWGQGTLVTVSS VL: DIQMTQSPSSLSTSVGDRVTITCRASQDVGTAVAWYQQKPGKAPKLLIYWTSTRHTGVPSRFSGSGSGTDFTLTISSVQPEDLATYYCQQYRSYPFTFGQGTKLEIK	no binding (tested: last point between 1 and 10 nM)

From patent US20210395361A1 (Alector, published 2021)
